Experimental data published in publication PMC12520519 (2025).

Target: receptor binding domain (RBD) of the SARS-CoV-2 spike protein, WT (SARS-CoV-2, UniProt P0DTC2)
Experiment: FACS

B1: Delta-6 scFv (scFv, V domains shown)
VH: EVQLLESGGGLVQPGGTLRLSCAASGFIVSSNYMSWVRQAPGKGLEWVSLVYPGGSTYYADSVKGRFTVSRDNSKNTLYLQMNSLRAEDMAVYYCARDLPSGVDAVDAFDIWGQGTMVTVSS
VL: DIRVTQSPSSLSASVGDRVSITCRASQIISGYLNWYQQKPGSAPQLLIYASSSLQSGVPPRFSGSRSGTEFTLTISSLQPEDFATYYCQQTYSIPFTFGPGTKVDIK
B1 showed a Kd of 6.3 nM.
